From PMC10641069, “Intra- and inter-molecular regulation by intrinsically-disordered regions governs PUF protein RNA binding” (Nature Communications, 2023)
Like-named read-outs stand apart in the source and are kept apart here.

How the values were obtained:
FBF-2 RBD = target: T1, FBF-2 RBD (Caenorhabditis elegans, UniProt Q09312); conditions: reported previously, cited from earlier work
T1 construct: The FBF-2 RBD protein (residue 164-575) was purified as described previously; His6-SUMO (N, cleaved yes); made in house; host or cells: E. coli BL21-CodonPlus (DE3)-RIL (host inferred: b50 says the procedure was otherwise the same as for RBD + CT)
T1 sequence (Q09312 whole entry, looked up): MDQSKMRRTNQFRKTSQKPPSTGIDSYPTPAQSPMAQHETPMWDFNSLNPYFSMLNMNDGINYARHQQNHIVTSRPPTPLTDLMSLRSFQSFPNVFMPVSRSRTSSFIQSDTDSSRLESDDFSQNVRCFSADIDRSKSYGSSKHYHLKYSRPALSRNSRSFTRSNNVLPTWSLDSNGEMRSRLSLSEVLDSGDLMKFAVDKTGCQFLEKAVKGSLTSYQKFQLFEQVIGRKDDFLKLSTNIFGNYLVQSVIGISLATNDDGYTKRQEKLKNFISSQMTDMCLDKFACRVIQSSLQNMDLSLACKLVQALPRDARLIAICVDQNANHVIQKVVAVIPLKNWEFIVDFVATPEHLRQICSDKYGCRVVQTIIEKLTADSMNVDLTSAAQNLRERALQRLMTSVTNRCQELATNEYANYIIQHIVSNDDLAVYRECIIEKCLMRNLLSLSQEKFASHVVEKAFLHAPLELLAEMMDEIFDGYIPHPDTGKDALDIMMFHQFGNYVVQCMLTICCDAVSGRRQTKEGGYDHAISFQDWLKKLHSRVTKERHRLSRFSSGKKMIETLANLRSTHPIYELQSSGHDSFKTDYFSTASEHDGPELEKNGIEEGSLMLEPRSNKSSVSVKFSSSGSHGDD
Description: Given that the core residues of three distinct PIMs—FBF-2 CT, LST-1 A, and LST-1 B—all bind to the same site of FBF-2, we hypothesized that the intramolecular FBF-2 CT binding could compete with LST-1 A and LST-1 B binding. To assess that idea, we investigated how the CT affects the protein interaction affinities of the FBF-2 RBD to LST-1 A and LST-1 B, using isothermal titration calorimetry (ITC, Supplementary Table 3). No RNA was included in these experiments. We first measured the binding affinity of an isolated CT peptide and the FBF-2 RBD (no CT), by titrating the peptide, FBF-2^601–632, ... || Fig. 2 The FBF-2 CT competes with partner proteins for binding to the RBD. Representative isothermal titration calorimetry thermograms (top, differential power [DP] vs time) and corresponding titration curve-fitting graphs (bottom) are shown for interaction between a FBF-2 RBD and FBF-2 CT, c FBF-2 RBD + CT and LST-1 A, d FBF-2 RBD + CT and LST-1 B, e FBF-2 RBD and FBF-2 CT L610A, f FBF-2 RBD + CT L610A and LST-1 A, and g FBF-2 RBD + CT L610A and LST-1 B. Data points on the curve-fitting graphs are shown as open circles. b Previously reported mean Kd from two independent replicates with simila ... || We next compared the protein interaction affinities of LST-1 A or LST-1 B with either FBF-2 RBD + CT or RBD alone (Fig. 2c–g, Supplementary Table 3). For these experiments, we titrated the LST-1 peptide into an ITC cell containing either RBD + CT or RBD.

FBF-2 RBD + CT = target: T2, FBF-2 RBD + CT (Caenorhabditis elegans, UniProt Q09312); test: ITC, peptide into FBF-2 RBD + CT, no RNA; assay type: binding, C. elegans; conditions: 20 °C, pH 7.4
T2 construct: A cDNA fragment encoding C. elegans FBF-2 RBD + CT (residues 164-632) was cloned into the pSMT3 vector; His6-SUMO (N, cleaved yes); made in house; host or cells: E. coli BL21-CodonPlus (DE3)-RIL
T2 sequence (Q09312 whole entry, looked up): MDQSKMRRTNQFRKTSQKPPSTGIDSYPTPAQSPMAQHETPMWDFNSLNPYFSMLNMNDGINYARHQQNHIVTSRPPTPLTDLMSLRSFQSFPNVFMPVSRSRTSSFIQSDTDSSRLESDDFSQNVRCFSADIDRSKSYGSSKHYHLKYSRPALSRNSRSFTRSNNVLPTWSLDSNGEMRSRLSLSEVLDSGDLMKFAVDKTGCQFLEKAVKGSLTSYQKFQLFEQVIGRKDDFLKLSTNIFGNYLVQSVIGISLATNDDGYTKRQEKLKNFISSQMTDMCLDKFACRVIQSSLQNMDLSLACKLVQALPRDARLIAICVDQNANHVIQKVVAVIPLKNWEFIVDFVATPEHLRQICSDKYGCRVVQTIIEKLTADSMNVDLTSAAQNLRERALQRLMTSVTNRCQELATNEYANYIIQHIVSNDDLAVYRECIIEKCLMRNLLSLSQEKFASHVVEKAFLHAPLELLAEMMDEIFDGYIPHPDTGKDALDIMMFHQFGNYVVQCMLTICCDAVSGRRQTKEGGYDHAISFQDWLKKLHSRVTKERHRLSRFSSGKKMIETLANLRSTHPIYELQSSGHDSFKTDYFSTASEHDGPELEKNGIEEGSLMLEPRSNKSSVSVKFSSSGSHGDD

FBF-2 RBD+CT L610A = target: T3, FBF-2 RBD+CT L610A (Caenorhabditis elegans, UniProt Q09312 164-632, L610A); test: EMSA; no LST-1; EMSA: FBF-2 in 20 mM HEPES pH 7.4, 150 mM NaCl, 0.5 mM TCEP mixed 1:1 with 5 nM final RNA in 10 mM HEPES pH 7.4, 0.01% Tween 20, 0.1 mg/ml BSA, 0.1 mg/ml yeast; conditions: protein: recombinant; tags: none (His6-SUMO removed with Ulp1); label: 3'-Cy5
T3 sequence: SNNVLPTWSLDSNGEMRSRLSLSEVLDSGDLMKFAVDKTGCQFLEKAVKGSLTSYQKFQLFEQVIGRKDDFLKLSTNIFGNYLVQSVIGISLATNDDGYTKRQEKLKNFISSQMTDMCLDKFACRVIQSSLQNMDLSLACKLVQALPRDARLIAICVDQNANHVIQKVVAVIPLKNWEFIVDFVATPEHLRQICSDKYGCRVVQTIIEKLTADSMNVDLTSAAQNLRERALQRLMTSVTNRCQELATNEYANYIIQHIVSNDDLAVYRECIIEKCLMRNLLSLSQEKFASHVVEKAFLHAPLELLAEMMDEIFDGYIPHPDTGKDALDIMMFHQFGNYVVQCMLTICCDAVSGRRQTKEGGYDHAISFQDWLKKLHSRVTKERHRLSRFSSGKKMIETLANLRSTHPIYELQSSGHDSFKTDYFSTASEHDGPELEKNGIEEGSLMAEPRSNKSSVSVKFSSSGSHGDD

## LST-1 B: LST-1 B peptide, residues 67–98, expressed in E. coli (SSSPQQRSGLRSQKLHLTYIEKNKRVRAMIPQ; left off: His6-SUMO, N-terminal, cleaved)
FBF-2 RBD; replicate 1
  -T∆S: 32.2 kJ/mol
  ∆G: -41.2 kJ/mol
  ∆H: -73.4 kJ/mol
FBF-2 RBD; replicate 2
  -T∆S: 30.0 kJ/mol
  ∆G: -41.3 kJ/mol
  ∆H: -71.3 kJ/mol
FBF-2 RBD + CT; replicate 1
  -T∆S: 8.7 kJ/mol
  ∆G: -31.9 kJ/mol
  ∆H: -40.6 kJ/mol
FBF-2 RBD + CT; replicate 2
  -T∆S: 9.5 kJ/mol
  ∆G: -30.8 kJ/mol
  ∆H: -40.2 kJ/mol

B1: gld-1 FBEa RNA (EMSA) (ssRNA)
RNA: AUCAUGUGCCAUAC
FBF-2 RBD+CT L610A
  Kd: 51 ± 26 nM
